Data taken from publication PMC6684588.

Assays:
[1] = target: activin A (UniProt P08476)
[2] = target: activin B (UniProt P09529)
[3] = target: growth differentiation factor 11 (GDF11) (UniProt O95390)
[4] = target: myostatin (GDF8) (UniProt O14793)
[5] = target: activin A (UniProt P08476); remark: listed apart in the source
[6] = target: activin B (UniProt P09529); remark: listed apart in the source
[7] = target: growth differentiation factor 11 (GDF11) (UniProt O95390); remark: listed apart in the source
[8] = target: myostatin (GDF8) (UniProt O14793); remark: listed apart in the source
[9] = target: ACE-083 (human); test: SPR; detailed kinetics: ACE-083 captured on immobilized goat anti-human Fc-specific antibody; two-fold series of BMP6 (0.156 nM-5 nM) and BMP7 (0.078 nM-5 nM) injected in duplicate, association 210 sec, dissociation 600 sec, 100 μl/min; global fit to 1:1 model with mass transport term (BIAevaluation); means of two flow cells
[10] = target: ACE-083 (FST291-Fc fusion protein) (human); test: SPR; Biacore T100, capture format at 37 °C; ACE-083 captured on an anti-human IgG Fc sensor chip, ligands injected as analytes in a concentration series in duplicate; association 210 sec, dissociation 600 sec (1200 sec for activin A and GDF11); global fit to a 1:1 binding model with mass transfer term; apparent KD

Chain of BMP7 (P18075 293-431): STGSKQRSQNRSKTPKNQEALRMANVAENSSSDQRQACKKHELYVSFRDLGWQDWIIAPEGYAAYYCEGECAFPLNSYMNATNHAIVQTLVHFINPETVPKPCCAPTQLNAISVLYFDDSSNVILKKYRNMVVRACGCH

| Molecule | Kd [10] | koff [10] | kon [10] | other results |
| --- | --- | --- | --- | --- |
| ACE-083 (FST291-Fc fusion protein) |  |  |  | IC50 of inhibition of activin A signaling through its cognate receptors, CAGA12 dual-luciferase reporter-gene assay in A204 cells [1]: 0.0392 nM; IC50 of inhibition of activin B signaling through its cognate receptors, CAGA12 dual-luciferase reporter-gene assay in A204 cells [2]: 0.0492 nM; IC50 of inhibition of GDF11 signaling through its cognate receptors, CAGA12 dual-luciferase reporter-gene assay in A204 cells [3]: 0.0759 nM; IC50 of inhibition of GDF8 signaling through its cognate receptors, CAGA12 dual-luciferase reporter-gene assay in A204 cells [4]: 0.676 nM |
| ACE-083 (Fc fusion) |  |  |  | Supplementary Figure S2: IC50 of ACE-083 for inhibition of activin A signalling through its cognate receptors, luciferase reporter-gene assay in A204 cells (representative curve of three experiments) [5]: 4.63 ng/mL; Supplementary Figure S2: IC50 of ACE-083 for inhibition of activin B signalling through its cognate receptors, luciferase reporter-gene assay in A204 cells (representative curve of three experiments) [6]: 4.75 ng/mL; Supplementary Figure S2: IC50 of ACE-083 for inhibition of GDF11 signalling through its cognate receptors, luciferase reporter-gene assay in A204 cells (representative curve of three experiments) [7]: 8.04 ng/mL; Supplementary Figure S2: IC50 of ACE-083 for inhibition of GDF8 signalling through its cognate receptors, luciferase reporter-gene assay in A204 cells (representative curve of three experiments) [8]: 81.9 ng/mL |
| BMP7 (from UniProt P18075 293-431) (ligand) |  |  |  | Kd [9]: 0.291 nM; koff [9]: 0.00196 s⁻¹; kon [9]: 6.75e+06 M⁻¹ s⁻¹ |
| growth differentiation factor 11 (GDF11) (ligand) NLGLDCDEHSSESRCCRYPLTVDFEAFGWDWIIAPKRYKANYCSGQCEYMFMQKYPHTHLVQQANPRGSAGPCCTPTKMSPINMLYFNDKQQIIYGKIPGMVVDRCGCS | 0.0154 nM | 7.2e-05 s⁻¹ | 4.77e+06 M⁻¹ s⁻¹ |  |
| activin A (ligand) GLECDGKVNICCKKQFFVSFKDIGWNDWIIAPSGYHANYCEGECPSHIAGTSGSSLSFHSTVINHYRMRGHSPFANLKSCCVPTKLRPMSMLYYDDGQNIIKKDIQNMIVEECGCS | 0.0788 nM | 0.000155 s⁻¹ | 1.97e+06 M⁻¹ s⁻¹ |  |

Further lines, with some results ahead:

| Kd [10] | koff [10] | kon [10] | Molecule | other results |
| --- | --- | --- | --- | --- |
| 0.348 nM | 0.000185 s⁻¹ | 532000 M⁻¹ s⁻¹ | myostatin (GDF8) (from UniProt O14793 267-375) (ligand) |  |
| 0.0103 nM | 0.000199 s⁻¹ | 1.93e+07 M⁻¹ s⁻¹ | activin B (ligand) GLECDGRTNLCCRQQFFIDFRLIGWNDWIIAPTGYYGNYCEGSCPAYLAGVPGSASSFHTAVVNQYRMRGLNPGTVNSCCIPTKLSTMSMLYFDDEYNIVKRDVPNMIVEECGCA |  |
